± gives the uncertainty stated by the source.
B1: POU domain, class 2, transcription factor 2, residues 200 to 269; numbered along this chain, P09086 (parent)
chain: LEELEQFARTFKQRRIKLGFTQGDVGLAMGKLYGNDFSQTTISRFEALNLSFKNMCKLKPLLEKWLNDAE

Variants of: B1
Experiment: abundance fitness (aPCA) (normalised: wild type 0, dead -1); higher = more abundant; growth selection in yeast, the domain comes from the species named
Settings: Homo sapiens

Variant | abundance fitness
LWELEQFARTFKQRRIKLGFTQGDVGLAMGKLYGNDFSQTTISRFEALNLSFKNMCKLKPLLEKWLNDAE | 0.039 ± 0.11
LYELEQFARTFKQRRIKLGFTQGDVGLAMGKLYGNDFSQTTISRFEALNLSFKNMCKLKPLLEKWLNDAE | -0.106 ± 0.24
LVELEQFARTFKQRRIKLGFTQGDVGLAMGKLYGNDFSQTTISRFEALNLSFKNMCKLKPLLEKWLNDAE | -0.062 ± 0.046
LEELEQHARTFKQRRIKLGFTQGDVGLAMGKLYGNDFSQTTISRFEALNLSFKNMCKLKPLLEKWLNDAE | -0.416 ± 0.1
LEELEQEARTFKQRRIKLGFTQGDVGLAMGKLYGNDFSQTTISRFEALNLSFKNMCKLKPLLEKWLNDAE | -0.357 ± 0.076
LEELEQCARTFKQRRIKLGFTQGDVGLAMGKLYGNDFSQTTISRFEALNLSFKNMCKLKPLLEKWLNDAE | -0.114 ± 0.052
LEELEQDARTFKQRRIKLGFTQGDVGLAMGKLYGNDFSQTTISRFEALNLSFKNMCKLKPLLEKWLNDAE | -0.595 ± 0.078
LEELEWFARTFKQRRIKLGFTQGDVGLAMGKLYGNDFSQTTISRFEALNLSFKNMCKLKPLLEKWLNDAE | -0.086 ± 0.056
LEELESFARTFKQRRIKLGFTQGDVGLAMGKLYGNDFSQTTISRFEALNLSFKNMCKLKPLLEKWLNDAE | 0.001 ± 0.06
LEELEDFARTFKQRRIKLGFTQGDVGLAMGKLYGNDFSQTTISRFEALNLSFKNMCKLKPLLEKWLNDAE | 0.001 ± 0.18
LEELEYFARTFKQRRIKLGFTQGDVGLAMGKLYGNDFSQTTISRFEALNLSFKNMCKLKPLLEKWLNDAE | -0.056 ± 0.081
LEELEMFARTFKQRRIKLGFTQGDVGLAMGKLYGNDFSQTTISRFEALNLSFKNMCKLKPLLEKWLNDAE | 0.027 ± 0.052
LEELEPFARTFKQRRIKLGFTQGDVGLAMGKLYGNDFSQTTISRFEALNLSFKNMCKLKPLLEKWLNDAE | -0.151 ± 0.067
LEELEAFARTFKQRRIKLGFTQGDVGLAMGKLYGNDFSQTTISRFEALNLSFKNMCKLKPLLEKWLNDAE | -0.095 ± 0.049
LEELETFARTFKQRRIKLGFTQGDVGLAMGKLYGNDFSQTTISRFEALNLSFKNMCKLKPLLEKWLNDAE | 0.003 ± 0.052
LEELEHFARTFKQRRIKLGFTQGDVGLAMGKLYGNDFSQTTISRFEALNLSFKNMCKLKPLLEKWLNDAE | -0.236 ± 0.1
LEELERFARTFKQRRIKLGFTQGDVGLAMGKLYGNDFSQTTISRFEALNLSFKNMCKLKPLLEKWLNDAE | -0.019 ± 0.034
LEELEFFARTFKQRRIKLGFTQGDVGLAMGKLYGNDFSQTTISRFEALNLSFKNMCKLKPLLEKWLNDAE | -0.086 ± 0.15
LEELEGFARTFKQRRIKLGFTQGDVGLAMGKLYGNDFSQTTISRFEALNLSFKNMCKLKPLLEKWLNDAE | -0.048 ± 0.04
LEELEVFARTFKQRRIKLGFTQGDVGLAMGKLYGNDFSQTTISRFEALNLSFKNMCKLKPLLEKWLNDAE | -0.05 ± 0.043
LEELEIFARTFKQRRIKLGFTQGDVGLAMGKLYGNDFSQTTISRFEALNLSFKNMCKLKPLLEKWLNDAE | -0.028 ± 0.095
LEELENFARTFKQRRIKLGFTQGDVGLAMGKLYGNDFSQTTISRFEALNLSFKNMCKLKPLLEKWLNDAE | -0.141 ± 0.089
LEELEKFARTFKQRRIKLGFTQGDVGLAMGKLYGNDFSQTTISRFEALNLSFKNMCKLKPLLEKWLNDAE | 0.079 ± 0.055
LEELELFARTFKQRRIKLGFTQGDVGLAMGKLYGNDFSQTTISRFEALNLSFKNMCKLKPLLEKWLNDAE | -0.066 ± 0.041
LEELEEFARTFKQRRIKLGFTQGDVGLAMGKLYGNDFSQTTISRFEALNLSFKNMCKLKPLLEKWLNDAE | -0.045 ± 0.047
LEYLEQFARTFKQRRIKLGFTQGDVGLAMGKLYGNDFSQTTISRFEALNLSFKNMCKLKPLLEKWLNDAE | -0.127 ± 0.072

Variant | abundance fitness
LECLEQFARTFKQRRIKLGFTQGDVGLAMGKLYGNDFSQTTISRFEALNLSFKNMCKLKPLLEKWLNDAE | -0.187 ± 0.065
LELLEQFARTFKQRRIKLGFTQGDVGLAMGKLYGNDFSQTTISRFEALNLSFKNMCKLKPLLEKWLNDAE | -0.137 ± 0.036
LETLEQFARTFKQRRIKLGFTQGDVGLAMGKLYGNDFSQTTISRFEALNLSFKNMCKLKPLLEKWLNDAE | -0.159 ± 0.061
LEVLEQFARTFKQRRIKLGFTQGDVGLAMGKLYGNDFSQTTISRFEALNLSFKNMCKLKPLLEKWLNDAE | -0.085 ± 0.054
LEALEQFARTFKQRRIKLGFTQGDVGLAMGKLYGNDFSQTTISRFEALNLSFKNMCKLKPLLEKWLNDAE | -0.123 ± 0.035
LERLEQFARTFKQRRIKLGFTQGDVGLAMGKLYGNDFSQTTISRFEALNLSFKNMCKLKPLLEKWLNDAE | -0.162 ± 0.034
LEWLEQFARTFKQRRIKLGFTQGDVGLAMGKLYGNDFSQTTISRFEALNLSFKNMCKLKPLLEKWLNDAE | -0.263 ± 0.027
LEPLEQFARTFKQRRIKLGFTQGDVGLAMGKLYGNDFSQTTISRFEALNLSFKNMCKLKPLLEKWLNDAE | -0.76 ± 0.071
LEMLEQFARTFKQRRIKLGFTQGDVGLAMGKLYGNDFSQTTISRFEALNLSFKNMCKLKPLLEKWLNDAE | -0.443 ± 0.18
LEGLEQFARTFKQRRIKLGFTQGDVGLAMGKLYGNDFSQTTISRFEALNLSFKNMCKLKPLLEKWLNDAE | -0.154 ± 0.041
LEKLEQFARTFKQRRIKLGFTQGDVGLAMGKLYGNDFSQTTISRFEALNLSFKNMCKLKPLLEKWLNDAE | -0.189 ± 0.083
LEDLEQFARTFKQRRIKLGFTQGDVGLAMGKLYGNDFSQTTISRFEALNLSFKNMCKLKPLLEKWLNDAE | -0.087 ± 0.14
LEILEQFARTFKQRRIKLGFTQGDVGLAMGKLYGNDFSQTTISRFEALNLSFKNMCKLKPLLEKWLNDAE | -0.078 ± 0.086
LEFLEQFARTFKQRRIKLGFTQGDVGLAMGKLYGNDFSQTTISRFEALNLSFKNMCKLKPLLEKWLNDAE | -0.208 ± 0.1
LENLEQFARTFKQRRIKLGFTQGDVGLAMGKLYGNDFSQTTISRFEALNLSFKNMCKLKPLLEKWLNDAE | -0.107 ± 0.085
LEQLEQFARTFKQRRIKLGFTQGDVGLAMGKLYGNDFSQTTISRFEALNLSFKNMCKLKPLLEKWLNDAE | -0.003 ± 0.061
LEELLQFARTFKQRRIKLGFTQGDVGLAMGKLYGNDFSQTTISRFEALNLSFKNMCKLKPLLEKWLNDAE | -0.093 ± 0.044
LEELWQFARTFKQRRIKLGFTQGDVGLAMGKLYGNDFSQTTISRFEALNLSFKNMCKLKPLLEKWLNDAE | -0.073 ± 0.054
LEELPQFARTFKQRRIKLGFTQGDVGLAMGKLYGNDFSQTTISRFEALNLSFKNMCKLKPLLEKWLNDAE | -0.5 ± 0.089
LEELAQFARTFKQRRIKLGFTQGDVGLAMGKLYGNDFSQTTISRFEALNLSFKNMCKLKPLLEKWLNDAE | 0.005 ± 0.042
LEELGQFARTFKQRRIKLGFTQGDVGLAMGKLYGNDFSQTTISRFEALNLSFKNMCKLKPLLEKWLNDAE | -0.034 ± 0.037
LEELFQFARTFKQRRIKLGFTQGDVGLAMGKLYGNDFSQTTISRFEALNLSFKNMCKLKPLLEKWLNDAE | -0.214 ± 0.2
LEELCQFARTFKQRRIKLGFTQGDVGLAMGKLYGNDFSQTTISRFEALNLSFKNMCKLKPLLEKWLNDAE | -0.07 ± 0.08
LEELIQFARTFKQRRIKLGFTQGDVGLAMGKLYGNDFSQTTISRFEALNLSFKNMCKLKPLLEKWLNDAE | -0.293 ± 0.098
LEELQQFARTFKQRRIKLGFTQGDVGLAMGKLYGNDFSQTTISRFEALNLSFKNMCKLKPLLEKWLNDAE | -0.057 ± 0.071
LEELHQFARTFKQRRIKLGFTQGDVGLAMGKLYGNDFSQTTISRFEALNLSFKNMCKLKPLLEKWLNDAE | 0.074 ± 0.2

Variant | abundance fitness
LEELMQFARTFKQRRIKLGFTQGDVGLAMGKLYGNDFSQTTISRFEALNLSFKNMCKLKPLLEKWLNDAE | 0.048 ± 0.08
LEELRQFARTFKQRRIKLGFTQGDVGLAMGKLYGNDFSQTTISRFEALNLSFKNMCKLKPLLEKWLNDAE | 0 ± 0.042
LEELDQFARTFKQRRIKLGFTQGDVGLAMGKLYGNDFSQTTISRFEALNLSFKNMCKLKPLLEKWLNDAE | -0.051 ± 0.083
LEELVQFARTFKQRRIKLGFTQGDVGLAMGKLYGNDFSQTTISRFEALNLSFKNMCKLKPLLEKWLNDAE | -0.052 ± 0.036
LEELYQFARTFKQRRIKLGFTQGDVGLAMGKLYGNDFSQTTISRFEALNLSFKNMCKLKPLLEKWLNDAE | -0.161 ± 0.11
LEELNQFARTFKQRRIKLGFTQGDVGLAMGKLYGNDFSQTTISRFEALNLSFKNMCKLKPLLEKWLNDAE | -0.224 ± 0.15
LEETEQFARTFKQRRIKLGFTQGDVGLAMGKLYGNDFSQTTISRFEALNLSFKNMCKLKPLLEKWLNDAE | -0.11 ± 0.048
LEEFEQFARTFKQRRIKLGFTQGDVGLAMGKLYGNDFSQTTISRFEALNLSFKNMCKLKPLLEKWLNDAE | -0.055 ± 0.067
LEEREQFARTFKQRRIKLGFTQGDVGLAMGKLYGNDFSQTTISRFEALNLSFKNMCKLKPLLEKWLNDAE | -0.485 ± 0.038
LEEMEQFARTFKQRRIKLGFTQGDVGLAMGKLYGNDFSQTTISRFEALNLSFKNMCKLKPLLEKWLNDAE | -0.032 ± 0.059
LEENEQFARTFKQRRIKLGFTQGDVGLAMGKLYGNDFSQTTISRFEALNLSFKNMCKLKPLLEKWLNDAE | -0.763 ± 0.38
LEEIEQFARTFKQRRIKLGFTQGDVGLAMGKLYGNDFSQTTISRFEALNLSFKNMCKLKPLLEKWLNDAE | 0.012 ± 0.1
LEEEEQFARTFKQRRIKLGFTQGDVGLAMGKLYGNDFSQTTISRFEALNLSFKNMCKLKPLLEKWLNDAE | -0.523 ± 0.078
LEEPEQFARTFKQRRIKLGFTQGDVGLAMGKLYGNDFSQTTISRFEALNLSFKNMCKLKPLLEKWLNDAE | -0.367 ± 0.055
LEECEQFARTFKQRRIKLGFTQGDVGLAMGKLYGNDFSQTTISRFEALNLSFKNMCKLKPLLEKWLNDAE | -0.784 ± 0.11
LEEDEQFARTFKQRRIKLGFTQGDVGLAMGKLYGNDFSQTTISRFEALNLSFKNMCKLKPLLEKWLNDAE | -0.64 ± 0.19
LEEWEQFARTFKQRRIKLGFTQGDVGLAMGKLYGNDFSQTTISRFEALNLSFKNMCKLKPLLEKWLNDAE | -0.201 ± 0.04
LEEQEQFARTFKQRRIKLGFTQGDVGLAMGKLYGNDFSQTTISRFEALNLSFKNMCKLKPLLEKWLNDAE | -0.233 ± 0.07
LEEVEQFARTFKQRRIKLGFTQGDVGLAMGKLYGNDFSQTTISRFEALNLSFKNMCKLKPLLEKWLNDAE | -0.08 ± 0.039
LEEHEQFARTFKQRRIKLGFTQGDVGLAMGKLYGNDFSQTTISRFEALNLSFKNMCKLKPLLEKWLNDAE | 0.052 ± 0.18
LEESEQFARTFKQRRIKLGFTQGDVGLAMGKLYGNDFSQTTISRFEALNLSFKNMCKLKPLLEKWLNDAE | -0.253 ± 0.055
LEEAEQFARTFKQRRIKLGFTQGDVGLAMGKLYGNDFSQTTISRFEALNLSFKNMCKLKPLLEKWLNDAE | -0.181 ± 0.045
LEEKEQFARTFKQRRIKLGFTQGDVGLAMGKLYGNDFSQTTISRFEALNLSFKNMCKLKPLLEKWLNDAE | -0.797 ± 0.12
LEEYEQFARTFKQRRIKLGFTQGDVGLAMGKLYGNDFSQTTISRFEALNLSFKNMCKLKPLLEKWLNDAE | -0.408 ± 0.19
LEEGEQFARTFKQRRIKLGFTQGDVGLAMGKLYGNDFSQTTISRFEALNLSFKNMCKLKPLLEKWLNDAE | -0.655 ± 0.058

Reference: the Human Domainome abundance scans (Beltran et al. 2025)
